Laboratory results taken from US20090149339A1 (published 2009).
Ends that are not written are not given here. * marks the point of attachment. Biotin = O=C1N[C@H]2[C@H](CS[C@H]2CCCCC(=O)*)N1

What was measured:
[1] = target: T1, GST-NeDLG PDZ domain fusion protein (presynaptic protein sao102, neuroendocrine-dlg; PDZ domains 1-2 of 3) (UniProt P08515 1-218 = GST); assay: G assay
T1 construct: also called NeDLG1

[2] = target: T2, GST-SYN1a PDZ domain fusion protein (alpha1-syntrophin AA96-189; PDZ domain 1 of 1) (UniProt P08515 1-218 = GST); assay: G assay
T2 construct: also called SYN 1 alpha; SYNTR 1 alpha

[3] = target: T3, GST-CASK PDZ domain fusion protein (CASK AA495-584; PDZ domain 1 of 1) (mouse, UniProt P08515 1-218 = GST); assay: A/G assays
T3 construct: also called mCASK

[4] = target: GST-LIM PDZ domain fusion protein (Human LIM protein AA29-112; PDZ domain 1 of 1) (human, UniProt P08515 1-218 = GST); assay: A/G assays
[5] = target: GST-LIMK2 PDZ domain fusion protein (human LIM domain kinase 2 AA185-275; PDZ domain 1 of 1) (human, UniProt P08515 1-218 = GST); assay: A/G assays
[6] = target: T4, GST-MPP2 PDZ domain fusion protein (maguk p55 subfamily member 2 (DLG2) AA185-273; PDZ domain 1 of 1) (UniProt P08515 1-218 = GST); assay: A/G assays
T4 construct: also called MMP2

[7] = target: GST-NOS1 PDZ domain fusion protein (human neuronal nitric oxide synthase; PDZ domain 1 of 1) (human, UniProt P08515 1-218 = GST); assay: A/G assays
[8] = target: GST-AF6 PDZ domain fusion protein (af-6 protein AA985-1077; PDZ domain 1 of 1) (UniProt P08515 1-218 = GST); assay: A/G assays
[9] = target: GST-PTN-4 PDZ domain fusion protein (protein-tyrosine phosphatase meg1 AA774-862; PDZ domain 1 of 1) (UniProt P08515 1-218 = GST); assay: A/G assays
[10] = target: GST-prIL16 PDZ domain fusion protein (putative interleukin 16 precursor AA170-383; PDZ domains 1-2 of 2) (UniProt P08515 1-218 = GST); assay: A/G assays
[11] = target: T5, GST-41.8 kD PDZ domain fusion protein (hypothetical 41.8 kD protein AA4-85; PDZ domain 1 of 1) (UniProt P08515 1-218 = GST); assay: A/G assays
T5 construct: also called hypoth

[12] = target: T6, GST-KIAA0559 PDZ domain fusion protein (KIAA0559 AA766-870; PDZ1 of 1) (UniProt P08515 1-218 = GST); assay: A/G assays
T6 construct: also called K559

[13] = target: GST-MPP1 PDZ domain fusion protein (55 Kd erythrocyte membrane protein AA101-186; PDZ domain 1 of 1) (UniProt P08515 1-218 = GST); assay: A/G assays
[14] = target: T7, GST-RGS12 PDZ domain fusion protein (human regulator of G-protein signalling 12 AA35-103; PDZ domain 1 of 1) (human, UniProt P08515 1-218 = GST); assay: A/G assays
T7 construct: also called RSG12

[15] = target: T8, GST-KIAA0316 PDZ domain fusion protein (KIAA0316 AA197-284; PDZ domain 1 of 1) (UniProt P08515 1-218 = GST); assay: A/G assays
T8 construct: also called K316

[16] = target: T9, GST-DVL1 PDZ domain fusion protein (human dishevelled segment polarity protein homolog AA248-340); PDZ domain … (human, UniProt P08515 1-218 = GST); assay: A/G assays
[17] = target: T10, GST-TAX40 PDZ domain fusion protein (human tax interaction protein 40 AA35-137; PDZ domain 1 of 1) (human, UniProt P08515 1-218 = GST); assay: A/G assays
T10 construct: also called TX 40

[18] = target: GST-TIAM1 PDZ domain fusion protein (T-lymphoma invasion and metastasis inducing protein 1 AA1001-1088); PDZ 1 … (UniProt P08515 1-218 = GST); assay: A/G assays
[19] = target: T11, GST-KIAA0303 PDZ domain fusion protein (KIAA0303 AA652-742; PDZ domain 1 of 1) (UniProt P08515 1-218 = GST); assay: A/G assays
T11 construct: also called K303

[20] = target: T12, GST-CBP PDZ domain fusion protein (Cytohesin binding protein HE AA85-175; PDZ domain 1 of 1) (UniProt P08515 1-218 = GST); assay: A/G assays
T12 construct: also called Prot

[21] = target: GST-MINT3 PDZ domain fusion protein (human MINT3 AA11-52; PDZ domain 1 of 1) (human, UniProt P08515 1-218 = GST); assay: A/G assays
[22] = target: T13, GST-TAX2 PDZ domain fusion protein (human tax interaction protein 2 AA54-140; PDZ domain 1 of 1) (human, UniProt P08515 1-218 = GST); assay: A/G assays
T13 construct: also called TX 2

[23] = target: T14, GST-TAX33 PDZ domain fusion protein (tax interaction protein 33 AA73-162; PDZ domain 1 of 1) (UniProt P08515 1-218 = GST); assay: A/G assays
T14 construct: also called TX33

[24] = target: T15, GST-TAX43 PDZ domain fusion protein (human tax interaction protein 43 AA15-85; PDZ domain 1 of 1) (human, UniProt P08515 1-218 = GST); assay: A/G assays
T15 construct: also called TX 43

[25] = target: T16, GST-PSD95 PDZ domain fusion protein (human post-synaptic density protein 95 AA387-724; PDZ domains 1-3 of 3) (human, UniProt P08515 1-218 = GST); assay: A and G assays
[26] = target: T5, GST-41.8 kD PDZ domain fusion protein …; assay: A assay
[27] = target: T7, GST-RGS12 PDZ domain fusion protein …; assay: A assay
[28] = target: T9, GST-DVL1 PDZ domain fusion protein …; assay: A assay
[29] = target: T2, GST-SYN1a PDZ domain fusion protein …; assay: A/G assays
[30] = target: T1, GST-NeDLG PDZ domain fusion protein …; assay: A and G assays
[31] = target: T5, GST-41.8 kD PDZ domain fusion protein …; assay: A/G assays; remark: listed apart in the source
[32] = target: T16, GST-PSD95 PDZ domain fusion protein …; assay: A/G assays
[33] = target: T1, GST-NeDLG PDZ domain fusion protein …; assay: A/G assays

GST-AF6 PDZ domain fusion protein (af-6 protein AA985-1077; PDZ domain 1 of 1), sequence (P08515 1-218, tags or fused parts left off): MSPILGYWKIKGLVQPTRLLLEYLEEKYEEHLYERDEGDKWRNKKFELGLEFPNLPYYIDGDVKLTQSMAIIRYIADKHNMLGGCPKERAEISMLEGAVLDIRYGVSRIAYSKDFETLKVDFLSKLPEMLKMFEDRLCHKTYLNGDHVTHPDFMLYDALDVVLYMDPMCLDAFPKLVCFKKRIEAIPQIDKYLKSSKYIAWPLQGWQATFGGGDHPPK
T16 sequence (P08515 1-218, tags or fused parts left off): as above
GST-MPP1 PDZ domain fusion protein (55 Kd erythrocyte membrane protein AA101-186; PDZ domain 1 of 1), sequence (P08515 1-218, tags or fused parts left off): as above
T12 sequence (P08515 1-218, tags or fused parts left off): as above
T15 sequence (P08515 1-218, tags or fused parts left off): as above
T6 sequence (P08515 1-218, tags or fused parts left off): as above
T7 sequence (P08515 1-218, tags or fused parts left off): as above
T3 sequence (P08515 1-218, tags or fused parts left off): as above
GST-NOS1 PDZ domain fusion protein (human neuronal nitric oxide synthase; PDZ domain 1 of 1), sequence (P08515 1-218, tags or fused parts left off): as above
T10 sequence (P08515 1-218, tags or fused parts left off): as above
T13 sequence (P08515 1-218, tags or fused parts left off): as above
GST-prIL16 PDZ domain fusion protein (putative interleukin 16 precursor AA170-383; PDZ domains 1-2 of 2), sequence (P08515 1-218, tags or fused parts left off): as above
T14 sequence (P08515 1-218, tags or fused parts left off): as above
T11 sequence (P08515 1-218, tags or fused parts left off): as above
GST-LIMK2 PDZ domain fusion protein (human LIM domain kinase 2 AA185-275; PDZ domain 1 of 1), sequence (P08515 1-218, tags or fused parts left off): as above
GST-PTN-4 PDZ domain fusion protein (protein-tyrosine phosphatase meg1 AA774-862; PDZ domain 1 of 1), sequence (P08515 1-218, tags or fused parts left off): as above
GST-MINT3 PDZ domain fusion protein (human MINT3 AA11-52; PDZ domain 1 of 1), sequence (P08515 1-218, tags or fused parts left off): as above
T8 sequence (P08515 1-218, tags or fused parts left off): as above
T5 sequence (P08515 1-218, tags or fused parts left off): as above
GST-TIAM1 PDZ domain fusion protein (T-lymphoma invasion and metastasis inducing protein 1 AA1001-1088); PDZ 1 …, sequence (P08515 1-218, tags or fused parts left off): as above
T1 sequence (P08515 1-218, tags or fused parts left off): as above

| Binder | binding result [3] | binding result [4] | binding result [5] | binding result [6] | binding result [7] | binding result [8] | binding result [9] | binding result [10] | binding result [12] | binding result [13] | binding result [14] | binding result [15] | binding result [17] | binding result [18] | binding result [19] | binding result [20] | binding result [21] | binding result [22] | binding result [23] | binding result [24] | also measured |
| --- | --- | --- | --- | --- | --- | --- | --- | --- | --- | --- | --- | --- | --- | --- | --- | --- | --- | --- | --- | --- | --- |
| Biotin-LASKSAEEGKQIPDSLSTDL [DOCK2 C-terminal PL peptide AA40L, biotinylated] | no binding | no binding | no binding | no binding | no binding | no binding | no binding | no binding | no binding | no binding | no binding | no binding | no binding | no binding | no binding | no binding | no binding | no binding | no binding | no binding | binding result [1]: binds; binding result [2]: binds; binding result [11]: no binding; binding result [16]: no binding; binding result [25]: binds |
| Biotin-TTNNNPNSAVNIKKIFTDV [KV1.3 C-terminal PL peptide AA33L, biotinylated] | no binding | no binding | no binding | no binding | no binding | no binding | no binding | no binding | no binding | no binding | – | no binding | no binding | no binding | no binding | no binding | no binding | no binding | no binding | no binding | binding result [26]: binds; binding result [27]: binds; binding result [28]: binds; binding result [29]: no binding; binding result [25]: binds; binding result [30]: binds |
| Biotin-DLGNMEENKKLEENNHKTEA [CD166 (CD6L) C-terminal PL peptide AA20L, biotinylated] | no binding | no binding | no binding | no binding | no binding | no binding | no binding | no binding | no binding | no binding | no binding | no binding | no binding | no binding | no binding | no binding | no binding | no binding | no binding | no binding | binding result [31]: no binding; binding result [16]: no binding; binding result [32]: no binding; binding result [33]: no binding; binding result [29]: no binding |
| Biotin-ENLAPVTTFGKTNGYIA [CD148 (DEP-1) C-terminal PL peptide AA19L (ends GYIA), biotinylated] | no binding | no binding | no binding | no binding | no binding | no binding | no binding | no binding | no binding | no binding | no binding | no binding | no binding | no binding | no binding | no binding | no binding | no binding | no binding | no binding | binding result [31]: no binding; binding result [16]: no binding; binding result [32]: no binding; binding result [33]: no binding; binding result [29]: no binding |
